Data: publication PMC11574021, “CEP192 localises mitotic Aurora-A activity by priming its interaction with TPX2” (The EMBO Journal, 2024)

Assays:
[1] = molecular target: T1, unphosphorylated Aurora-A CAKD (Homo sapiens, UniProt O14965, C290A/C393A); assay: Fluorescence anisotropy competition with FAM-TPX2 7-43; type: binding; conditions: for IC50: competition with 100 nM FAM-TPX2 7-43, 10 μM unphosphorylated Aurora-A CAKD, n = 3 (Appendix Fig. S4E)
T1 construct: 10 μM Aurora-A kinase domain (phosphorylated or unphosphorylated C290A C393A 122–403); His (N, cleaved yes); made in house; host or cells: E. coli RIL, co-expressed with lambda phosphatase
T1 sequence (O14965 122-403 C290A/C393A): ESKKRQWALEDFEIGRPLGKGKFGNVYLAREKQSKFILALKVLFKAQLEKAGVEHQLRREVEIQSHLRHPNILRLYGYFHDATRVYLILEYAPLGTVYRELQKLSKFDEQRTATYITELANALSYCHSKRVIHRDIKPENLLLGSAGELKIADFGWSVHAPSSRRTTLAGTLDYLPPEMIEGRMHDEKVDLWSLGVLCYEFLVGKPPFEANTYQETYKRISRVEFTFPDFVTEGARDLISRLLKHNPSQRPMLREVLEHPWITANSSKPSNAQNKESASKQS
Description: (§1) Assays were performed in 25 mM HEPES pH 7.5, 150 mM NaCl, 2 mM DTT, 5 mM MgCl2, 0.01% Tween 20. For CEP192 and TPX2 competition assays 10 μM Aurora-A kinase domain (phosphorylated or unphosphorylated C290A C393A 122–403) was preincubated on ice with 100 nM FAM-TPX2 7-43 or 100 nM FAM-CEP192 501–533. For TACC3 competition, due to weaker binding, 25 μM Aurora-A kinase domain (phosphorylated or unphosphorylated C290A C393A 122–403) was preincubated with 100 nM FAM-TACC3 522-536. Serial dilutions of competitor (CEP192) were performed in triplicate into a low volume 384-well black plate, before the premixed Aurora-A and tracer were added. A control row included no tracer. Plates were left incubating for 1 h at room temperature before the fluorescence anisotropy was measured using a HIDEX plate reader, with excitation at 485 nm and emission at 535 nm. For direct binding experiments, the assay was performed as above, but the Aurora-A (122–403 C290A C393A or point mutants) was diluted across the plate from high to low concentration, before the addition of 50 nM tracer (FAM-CEP192 501–533) to three replicate rows. Buffer only was added to the control row.
(§2) Fluorescence anisotropy data were processed using Microsoft Excel to calculate intensity and anisotropy using the equation listed in (Yeo et al, [2013]). The IC50 and Kd values were calculated using Origin (OriginLab) where the data fitted to a sigmoid and are summarised in Appendix Table S3.

[2] = molecular target: T2, phosphorylated Aurora-A CAKD (Homo sapiens, UniProt O14965, C290A/C393A); assay: ITC, CEP192 with phosphorylated Aurora-A CAKD; type: binding; conditions: ratio of Kd, phosphorylated vs unphosphorylated
T2 construct: 10 nM Aurora-A 122–403 C290A C393A phosphorylated protein; His (N, cleaved yes); made in house; host or cells: E. coli B834 (no lambda phosphatase)
T2 sequence (O14965 122-403 C290A/C393A): T1 sequence (O14965 122-403 C290A/C393A)
Description: (§3) Thermodynamic information was established using the ITC200 microcalorimeter (MicroCal, Northampton, MA). Proteins were dialysed overnight into 20 mM tris pH 7.5, 200 mM NaCl, 10% glycerol, 5 mM magnesium chloride (CEP192 constructs/mutants and Aurora-A 122–403 mutants). Experiments were carried out at 25 °C. The syringe contained 70 μl of 250 μM Aurora-A 122–403 (D274N C290A C393A or mutant). About 2 μl injections were applied every 180 s. The cell contained 205 μl of 25 μM CEP192 construct/mutant. Microcal Origin software version 7.0 was used to determine the dissociation constants (Kd). All measurements were repeated at least twice.

[3] = molecular target: T1, unphosphorylated Aurora-A CAKD; assay: Fluorescence anisotropy competition with FAM-CEP192 501-533, unphosphorylated Aurora-A; type: binding
Description: as §1, §2

Aurora-A CAKD = molecular target: T3, Aurora-A CAKD (Homo sapiens, UniProt O14965, C290A/C393A); assay: Fluorescence anisotropy competition with FAM-TACC3 522-536; type: binding; conditions: in words
T3 construct: 25 μM Aurora-A kinase domain (phosphorylated or unphosphorylated C290A C393A 122–403); His (N, cleaved yes); made in house; host or cells: E. coli
T3 sequence (O14965 122-403 C290A/C393A): T1 sequence (O14965 122-403 C290A/C393A)
Description: as §1, with “For direct binding experiments, the assay was performed as above, but the Aurora-A (122–403 C290A C393A or point mutants) was diluted across the plate from high to low concentration, before the addition of 50 nM tracer (FAM-CEP192 501–533) to three replicate rows. Buffer only was added to the control row.” left out
as §2

[4] = molecular target: T2, phosphorylated Aurora-A CAKD; assay: Fluorescence anisotropy competition with FAM-CEP192 501-533, phosphorylated Aurora-A; type: binding; conditions: competition with 100 nM FAM-CEP192 501-533, 10 μM phosphorylated Aurora-A CAKD, n = 3
Description: as §1, §2

[5] = molecular target: T2, phosphorylated Aurora-A CAKD; assay: ADP-Glo kinase assay, kemptide substrate; type: biochemical; conditions: ADP-Glo, phosphorylated Aurora-A CAKD, kemptide; in words
Description: Reactions were initiated by the addition of 10 μM ATP and 100 μM kemptide as substrate (Cambridge Bioscience Ltd). The reactions were incubated at room temperature for 60 min before 5 μl was transferred into 5 ul of ADP-Glo Reagent (Promega) in a 384-well low volume low binding plate (Greiner Bio-one). After a further 40 min at room temperature, 10 μl of kinase detection reagent was added to each well, and the reaction was allowed to incubate for an additional 30 min. Luminescence was measured on a HIDEX Sense plate reader (HIDEX) using a 1 s integration time. Control data was subtracted from the luminescence and three repeats were averaged before being fitted to a sigmoidal plot using Origin (OriginLab), where IC50 and EC50 values were calculated.

Aurora-A KD F165D/R205A = assay: ITC, CEP192 with Aurora-A KD F165D/R205A; type: binding, human; conditions: 25 °C, pH 7.5
Description: as §3

B1: CEP192 468-533: recombinant human CEP192 aa 468–533, minimal binding region (protein)
chain: PQSVVYQNEEGRWVTDLAYYTSFNSKQNLNVSLSDEMNEDFRSGSEAFDLIAQDEEEFNKEHQFIQ
modifications: left off: His6, N-terminal, cleaved | SUMO, N-terminal, cleaved
B1 was tested, and the IC50 [1] was 3.24 µM, the IC50 ([1]; listed as WT CEP192) was roughly 4 µM and the “competition for binding with FAM-TPX2 7-43” value ([1]; in words, Aurora-A CAKD) was “competed for binding with FAM-TPX2_7-43”. The “difference in affinity compared to unphosphorylated Aurora-A” value [2] was “around a twofold difference in affinity”, the IC50 ([3]; competition with 100 nM FAM-CEP192 501-533, 10 μM unphosphorylated Aurora-A CAKD, n = 3) was 1.42 µM and the “ability to compete for binding, phosphorylated vs unphosphorylated Aurora-A” value ([3]; competition with FAM-CEP192 501-533, in words) was “No significant difference”. For the same molecule, the “competition for binding with FAM-TACC3 522-536” value (Aurora-A CAKD) was “competed for binding with FAM-TACC3_522-536”, the IC50 [4] was 0.63 µM and the “effect on Aurora-A kinase activity” value [5] was “partially inhibited the activity”. It also gave a Kd (Aurora-A KD F165D/R205A) of 26 ± 16 µM.
